Measured values from patent publication US7696168 (TUFTS MEDICAL CENTER, dated 2010).
The star is where a group is joined. Palmitoyl = CCCCCCCCCCCCCCCC(=O)*

Experiments:
Assay in all cases: cell-based or functional assay
human PAR1 = biological target: T1, human PAR1 (human, UniProt P25116 42-425)
T1 sequence (looked up): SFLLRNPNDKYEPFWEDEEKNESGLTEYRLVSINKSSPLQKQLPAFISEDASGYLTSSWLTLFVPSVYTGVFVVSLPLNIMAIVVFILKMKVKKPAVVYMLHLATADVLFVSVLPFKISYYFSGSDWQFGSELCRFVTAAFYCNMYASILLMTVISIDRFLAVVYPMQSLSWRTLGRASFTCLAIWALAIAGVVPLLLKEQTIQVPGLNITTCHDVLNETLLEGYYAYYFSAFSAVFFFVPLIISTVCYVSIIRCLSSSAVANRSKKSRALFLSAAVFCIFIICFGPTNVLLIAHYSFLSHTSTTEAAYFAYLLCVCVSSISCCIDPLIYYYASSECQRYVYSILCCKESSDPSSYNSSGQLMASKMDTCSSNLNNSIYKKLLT

[1] = biological target: rat somatostatin receptor (SSTR2) (rat, UniProt P30680 1-369)
Sequence of rat somatostatin receptor (SSTR2) (P30680 whole entry): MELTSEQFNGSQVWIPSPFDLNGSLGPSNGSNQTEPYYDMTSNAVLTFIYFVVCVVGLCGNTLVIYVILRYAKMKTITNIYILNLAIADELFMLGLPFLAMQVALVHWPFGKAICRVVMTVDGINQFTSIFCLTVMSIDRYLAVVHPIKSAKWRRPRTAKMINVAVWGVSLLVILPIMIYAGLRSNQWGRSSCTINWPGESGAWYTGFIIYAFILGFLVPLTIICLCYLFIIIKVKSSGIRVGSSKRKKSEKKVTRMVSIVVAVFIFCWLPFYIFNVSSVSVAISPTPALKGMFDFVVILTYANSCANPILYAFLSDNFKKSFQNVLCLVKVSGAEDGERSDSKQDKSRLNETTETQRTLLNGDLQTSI

[2] = biological target: T2, human cholecystokinin A receptor (CCKA) (human, UniProt P32238 1-428)
T2 sequence (looked up): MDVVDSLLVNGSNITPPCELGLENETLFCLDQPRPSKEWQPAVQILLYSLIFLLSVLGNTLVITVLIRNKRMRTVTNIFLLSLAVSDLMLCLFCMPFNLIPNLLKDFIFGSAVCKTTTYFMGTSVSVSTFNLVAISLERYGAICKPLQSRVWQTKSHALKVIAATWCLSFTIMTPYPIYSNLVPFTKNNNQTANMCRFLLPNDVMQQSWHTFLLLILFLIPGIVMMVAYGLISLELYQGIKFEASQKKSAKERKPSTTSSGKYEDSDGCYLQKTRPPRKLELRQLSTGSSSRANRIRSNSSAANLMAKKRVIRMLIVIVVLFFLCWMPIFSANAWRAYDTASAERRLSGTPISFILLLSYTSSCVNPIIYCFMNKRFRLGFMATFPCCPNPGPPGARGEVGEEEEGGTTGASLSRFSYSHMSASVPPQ

MC4 receptor (MC4R) = MC4 receptor (MC4R) (human, UniProt P32245 1-332)
Sequence of MC4 receptor (MC4R) (P32245 whole entry): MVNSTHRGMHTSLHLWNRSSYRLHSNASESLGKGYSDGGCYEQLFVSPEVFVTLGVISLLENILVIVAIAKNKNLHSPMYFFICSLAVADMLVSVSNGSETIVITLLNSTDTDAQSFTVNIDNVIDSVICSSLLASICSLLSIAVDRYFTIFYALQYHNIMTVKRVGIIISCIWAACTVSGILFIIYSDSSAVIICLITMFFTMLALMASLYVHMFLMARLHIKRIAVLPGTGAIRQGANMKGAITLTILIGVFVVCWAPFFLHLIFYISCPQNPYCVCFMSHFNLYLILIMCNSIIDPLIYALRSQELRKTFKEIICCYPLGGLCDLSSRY

[3] = biological target: T3, human cholecystokinin B receptor (CCKB) (human, UniProt P32239 1-447)
T3 sequence (looked up): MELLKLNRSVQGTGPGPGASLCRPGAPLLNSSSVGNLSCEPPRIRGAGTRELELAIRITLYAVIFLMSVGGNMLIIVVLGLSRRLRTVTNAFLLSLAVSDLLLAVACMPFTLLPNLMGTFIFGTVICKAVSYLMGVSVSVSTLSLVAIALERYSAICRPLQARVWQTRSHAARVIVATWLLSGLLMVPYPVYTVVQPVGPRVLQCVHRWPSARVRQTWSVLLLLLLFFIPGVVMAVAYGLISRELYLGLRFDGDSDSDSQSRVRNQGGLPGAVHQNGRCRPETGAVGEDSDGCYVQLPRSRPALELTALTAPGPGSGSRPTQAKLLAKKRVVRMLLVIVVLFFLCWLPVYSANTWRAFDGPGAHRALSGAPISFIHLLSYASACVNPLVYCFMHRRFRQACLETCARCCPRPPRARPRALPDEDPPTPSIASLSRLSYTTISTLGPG

B1: P1pal-12 (Pal-RCLSSSAVANRS) (peptide)
peptide: Palmitoyl-RCLSSSAVANRS-NH2
SMILES: CCCCCCCCCCCCCCCC(=O)N[C@@H](CCCNC(=N)N)C(=O)N[C@@H](CS)C(=O)N[C@@H](CC(C)C)C(=O)N[C@@H](CO)C(=O)N[C@@H](CO)C(=O)N[C@@H](CO)C(=O)N[C@@H](C)C(=O)N[C@H](C(=O)N[C@@H](C)C(=O)N[C@@H](CC(N)=O)C(=O)N[C@@H](CCCNC(=N)N)C(=O)N[C@@H](CO)C(N)=O)C(C)C
Antagonist IC50 (InsP formation, against 0.1 nM thrombin) (human PAR1): 5000 nM

B2: S2pal-23F (Pal-KVRSSGIRVGSSKRKKSEKKVTF) (peptide)
peptide: Palmitoyl-KVRSSGIRVGSSKRKKSEKKVTF-NH2
SMILES: CCCCCCCCCCCCCCCC(=O)N[C@@H](CCCCN)C(=O)N[C@H](C(=O)N[C@@H](CCCNC(=N)N)C(=O)N[C@@H](CO)C(=O)N[C@@H](CO)C(=O)NCC(=O)N[C@H](C(=O)N[C@@H](CCCNC(=N)N)C(=O)N[C@H](C(=O)NCC(=O)N[C@@H](CO)C(=O)N[C@@H](CO)C(=O)N[C@@H](CCCCN)C(=O)N[C@@H](CCCNC(=N)N)C(=O)N[C@@H](CCCCN)C(=O)N[C@@H](CCCCN)C(=O)N[C@@H](CO)C(=O)N[C@@H](CCC(=O)O)C(=O)N[C@@H](CCCCN)C(=O)N[C@@H](CCCCN)C(=O)N[C@H](C(=O)N[C@H](C(=O)N[C@@H](Cc1ccccc1)C(N)=O)[C@@H](C)O)C(C)C)C(C)C)[C@@H](C)CC)C(C)C
Agonist EC50 (activating phase, InsP formation) [1]: 100 nM
Agonist Efficacy (% of full response to extracellular agonist) [1]: 15%
Agonist IC50 (inhibitory phase, InsP formation) [1]: 500 nM
Antagonist IC50 (InsP formation, against 1 µM …) [1]: 3000 nM

B3: Apal-19F (Pal-RIRSNSSAANLMAKKRVIEF) (peptide)
peptide: Palmitoyl-RIRSNSSAANLMAKKRVIEF-NH2
SMILES: CCCCCCCCCCCCCCCC(=O)N[C@@H](CCCNC(=N)N)C(=O)N[C@H](C(=O)N[C@@H](CCCNC(=N)N)C(=O)N[C@@H](CO)C(=O)N[C@@H](CC(N)=O)C(=O)N[C@@H](CO)C(=O)N[C@@H](CO)C(=O)N[C@@H](C)C(=O)N[C@@H](C)C(=O)N[C@@H](CC(N)=O)C(=O)N[C@@H](CC(C)C)C(=O)N[C@@H](CCSC)C(=O)N[C@@H](C)C(=O)N[C@@H](CCCCN)C(=O)N[C@@H](CCCCN)C(=O)N[C@@H](CCCNC(=N)N)C(=O)N[C@H](C(=O)N[C@H](C(=O)N[C@@H](CCC(=O)O)C(=O)N[C@@H](Cc1ccccc1)C(N)=O)[C@@H](C)CC)C(C)C)[C@@H](C)CC
Agonist EC50 (activating phase, InsP formation) [2]: 200 nM
Agonist Efficacy (% of full response to 300 nM CCK-8) [2]: < 10%
Agonist IC50 (inhibitory phase, InsP formation) [2]: 2000 nM

B4: MC4pal-14 (Pal-TGAIRQGANMKGAI) (peptide)
peptide: Palmitoyl-TGAIRQGANMKGAI-NH2
SMILES: CCCCCCCCCCCCCCCC(=O)N[C@H](C(=O)NCC(=O)N[C@@H](C)C(=O)N[C@H](C(=O)N[C@@H](CCCNC(=N)N)C(=O)N[C@@H](CCC(N)=O)C(=O)NCC(=O)N[C@@H](C)C(=O)N[C@@H](CC(N)=O)C(=O)N[C@@H](CCSC)C(=O)N[C@@H](CCCCN)C(=O)NCC(=O)N[C@@H](C)C(=O)N[C@H](C(N)=O)[C@@H](C)CC)[C@@H](C)CC)[C@@H](C)O
EC50, activating phase (adenylate cyclase) (MC4 receptor (MC4R)): ~150 nM
IC50, inhibitory phase (adenylate cyclase) (MC4 receptor (MC4R)): ~10000 nM
adenylate cyclase activity relative to alpha-MSH (MC4 receptor (MC4R)): 40%

B5: S2pal-23 (Pal-KVKSSGIRVGSSKRKKSEKKVTK) (peptide)
peptide: Palmitoyl-KVKSSGIRVGSSKRKKSEKKVTK-NH2
SMILES: CCCCCCCCCCCCCCCC(=O)N[C@@H](CCCCN)C(=O)N[C@H](C(=O)N[C@@H](CCCCN)C(=O)N[C@@H](CO)C(=O)N[C@@H](CO)C(=O)NCC(=O)N[C@H](C(=O)N[C@@H](CCCNC(=N)N)C(=O)N[C@H](C(=O)NCC(=O)N[C@@H](CO)C(=O)N[C@@H](CO)C(=O)N[C@@H](CCCCN)C(=O)N[C@@H](CCCNC(=N)N)C(=O)N[C@@H](CCCCN)C(=O)N[C@@H](CCCCN)C(=O)N[C@@H](CO)C(=O)N[C@@H](CCC(=O)O)C(=O)N[C@@H](CCCCN)C(=O)N[C@@H](CCCCN)C(=O)N[C@H](C(=O)N[C@H](C(=O)N[C@@H](CCCCN)C(N)=O)[C@@H](C)O)C(C)C)C(C)C)[C@@H](C)CC)C(C)C
Antagonist IC50 (InsP formation, against 1 µM …) [1]: 2000 nM

Palmitoyl-KKSRALF-NH2 [P1pal-7 (Pal-KKSRALF)]
Antagonist IC50 (InsP formation, against 0.1 nM thrombin) (human PAR1): 1200 nM

B6: Bpal-18 (Pal-SGSRPTQAKLLAKKRVVR) (peptide)
peptide: Palmitoyl-SGSRPTQAKLLAKKRVVR-NH2
SMILES: CCCCCCCCCCCCCCCC(=O)N[C@@H](CO)C(=O)NCC(=O)N[C@@H](CO)C(=O)N[C@@H](CCCNC(=N)N)C(=O)N1CCC[C@H]1C(=O)N[C@H](C(=O)N[C@@H](CCC(N)=O)C(=O)N[C@@H](C)C(=O)N[C@@H](CCCCN)C(=O)N[C@@H](CC(C)C)C(=O)N[C@@H](CC(C)C)C(=O)N[C@@H](C)C(=O)N[C@@H](CCCCN)C(=O)N[C@@H](CCCCN)C(=O)N[C@@H](CCCNC(=N)N)C(=O)N[C@H](C(=O)N[C@H](C(=O)N[C@@H](CCCNC(=N)N)C(N)=O)C(C)C)C(C)C)[C@@H](C)O
Agonist EC50 (activating phase, InsP formation) [3]: 1500 nM
Agonist Efficacy (% of full response to 300 nM CCK-8) [3]: 12%
Agonist IC50 (inhibitory phase, InsP formation) [3]: 10000 nM

B7: P1pal-13 (Pal-AVANRSKKSRALF) (peptide)
peptide: Palmitoyl-AVANRSKKSRALF-NH2
SMILES: CCCCCCCCCCCCCCCC(=O)N[C@@H](C)C(=O)N[C@H](C(=O)N[C@@H](C)C(=O)N[C@@H](CC(N)=O)C(=O)N[C@@H](CCCNC(=N)N)C(=O)N[C@@H](CO)C(=O)N[C@@H](CCCCN)C(=O)N[C@@H](CCCCN)C(=O)N[C@@H](CO)C(=O)N[C@@H](CCCNC(=N)N)C(=O)N[C@@H](C)C(=O)N[C@@H](CC(C)C)C(=O)N[C@@H](Cc1ccccc1)C(N)=O)C(C)C
Agonist EC50 (activating phase, InsP formation) (human PAR1): 700 nM
Agonist IC50 (inhibitory phase, InsP formation) (human PAR1): 32000 nM

B8: P1pal-19E (Pal-RCESSSAEANRSKKERELF) (peptide)
peptide: Palmitoyl-RCESSSAEANRSKKERELF-NH2
SMILES: CCCCCCCCCCCCCCCC(=O)N[C@@H](CCCNC(=N)N)C(=O)N[C@@H](CS)C(=O)N[C@@H](CCC(=O)O)C(=O)N[C@@H](CO)C(=O)N[C@@H](CO)C(=O)N[C@@H](CO)C(=O)N[C@@H](C)C(=O)N[C@@H](CCC(=O)O)C(=O)N[C@@H](C)C(=O)N[C@@H](CC(N)=O)C(=O)N[C@@H](CCCNC(=N)N)C(=O)N[C@@H](CO)C(=O)N[C@@H](CCCCN)C(=O)N[C@@H](CCCCN)C(=O)N[C@@H](CCC(=O)O)C(=O)N[C@@H](CCCNC(=N)N)C(=O)N[C@@H](CCC(=O)O)C(=O)N[C@@H](CC(C)C)C(=O)N[C@@H](Cc1ccccc1)C(N)=O
Agonist EC50 (activating phase, InsP formation) (human PAR1): 2500 nM
Agonist Efficacy (% of full response to extracellular agonist) (human PAR1): 11%
Agonist IC50 (inhibitory phase, InsP formation) (human PAR1): 80000 nM
Antagonist IC50 (InsP formation, against 0.1 nM thrombin) (human PAR1): > 50000 nM
